These results are taken from publication PMC5132341, “Malaria parasite CelTOS targets the inner leaflet of cell membranes for pore-dependent disruption” (eLife, 2016).

Series [1] concerns the target Plasmodium vivax cell-traversal protein for ookinetes and sporozoites (PvCelTOS), amino acids 36-196 (Plasmodium vivax). The series is described as follows: AUC; sedimentation equilibrium, 10°C, 150 mM NaCl, 10 mM HEPES pH 7.4, 12,000 and 15,000 rpm; PfCelTOS at 25, 36 and 46 µM, PvCelTOS at 29, 41 and 53 µM; single component model.
Series [2] concerns the molecule itself. Described as above.

The stoichiometry N is the number of molecules, sites or subunits per partner or assembly.

“Plasmodium vivax cell-traversal protein for ookinetes and sporozoites (PvCelTOS), amino acids 36-196 (domain or fragment)”: the stoichiometry N in series [1] turned out to be 2.

B1: Plasmodium falciparum cell-traversal protein for ookinetes and sporozoites (PfCelTOS), amino acids 25-182 (domain or fragment)
chain: FRGNNGHNSSSSLYNGSQFIEQLNNSFTSAFLESQSMNKIGDDLAETISNELVSVLQKNSPTFLESSFDIKSEVKKHAKSMLKELIKVGLPSFENLVAENVKPPKVDPATYGIIVPVLTSLFNKVETAVGAKVSDEIWNYNSPDVSESEESLSDDFFD
notes: CelTOS of Plasmodium falciparum, UniProtKB Q8I5P1, amino acids 25-182, codon-optimized gene; No cleavage of the hexahistidine tag is described; the same preparation is detected with an anti-His antibody in the lipid strip assay, so the tag was probably kept; also called Antigen 2; source: E. coli, purified (Nickel-NTA chromatography, gel filtration on Superdex 200)
For B1, the “stoichiometry N” value in series [2] stood at 2.
